What is called kcat is the maximal rate divided by the concentration of active sites. One may read the kcat/KM as the turnover number divided by the Michaelis constant. In general, KM refers to the substrate concentration at which the rate is half of its maximum.

From patent US20210238260 come the findings set out here.

The labels stand for the following.
B1: FIXa-Y155F/R338E/T343R/R403E (protein)
chain 1: YNSGKLEEFVQGNLERECMEEKCSFEEAREVFENTERTTEFWKQYVDGDQCESNPCLNGGSCKDDINSYECWCPFGFEGKNCELDVTCNIKNGRCEQFCKNSADNKVVCSCTEGYRLAENQKSCEPAVPFPCGRVSVSQTSKLTR
chain 2: VVGGEDAKPGQFPWQVVLNGKVDAFCGGSIVNEKWIVTAAHCVETGVKITVVAGEHNIEETEHTEQKRNVIRIIPHHNYNAAINKYNHDIALLELDEPLVLNSYVTPICIADKEYTNIFLKFGSGYVSGWGRVFHKGRSALVLQYLRVPLVDRATCLESTKFRIYNNMFCAGFHEGGRDSCQGDSGGPHVTEVEGTSFLTGIISWGEECAMKGKYGIYTKVSEYVNWIKEKTKLT
B2: FIXa-K247N/N249S/R318Y/R338E/T343R/R403E (protein)
chain 1: B1 chain 1
chain 2: B1 chain 2 with K67N, N69S, R138Y
B3: FIXa-Y155F/R338E/T343R/R403E/E410S (protein)
chain 1: B1 chain 1
chain 2: B1 chain 2 with E230S
B4: FIXa-Y155F/I251S/R338E/T343R/R403E (protein)
chain 1: B1 chain 1
chain 2: B1 chain 2 with I71S
B5: FIXa-Y155F/K247N/N249S/R318Y/T343R (protein)
chain 1: B1 chain 1
chain 2: B1 chain 2 with K67N, N69S, R138Y, E158R, E223R
B6: FIXa-K247N/N249S/T343R/R403E/E410N (protein)
chain 1: B1 chain 1
chain 2: B1 chain 2 with K67N, N69S, E158R, E230N
B7: FIXa-Y155F/K247N/N249S/T343R/E410N (protein)
chain 1: B1 chain 1
chain 2: B1 chain 2 with K67N, N69S, E158R, E223R, E230N
B8: FIXa-Y155F/K247N/N249S/R338E/R403E (protein)
chain 1: B1 chain 1
chain 2: B1 chain 2 with K67N, N69S, R163T
B9: FIXa-Y155F/K247N/N249S/T343R/R403E (protein)
chain 1: B1 chain 1
chain 2: B1 chain 2 with K67N, N69S, E158R
B10: FIXa-Y155F/K247N/N249S/R318Y/R338E (protein)
chain 1: B1 chain 1
chain 2: B1 chain 2 with K67N, N69S, R138Y, R163T, E223R
B11: FIXa-R338E/T343R/R403E (protein)
chain 1: B1 chain 1
chain 2: B1 chain 2
B12: FIXa-K247N/N249S/R338E/T343R/R403E/E410N (protein)
chain 1: B1 chain 1
chain 2: B1 chain 2 with K67N, N69S, E230N
B13: FIXa-Y155F/K247N/N249S/R318Y/R338E/T343R/R403E (protein)
chain 1: B1 chain 1
chain 2: B1 chain 2 with K67N, N69S, R138Y
B14: FIXa-R318Y/R338E/T343R (protein)
chain 1: B1 chain 1
chain 2: B1 chain 2 with R138Y, E223R
B15: FIXa-Y155F/K247N/N249S/R338E/T343R/R403E/E410N (protein)
chain 1: B1 chain 1
chain 2: B1 chain 2 with K67N, N69S, E230N
B16: FIXa-Y155F/K247N/N249S/R318Y/E410N (protein)
chain 1: B1 chain 1
chain 2: B1 chain 2 with K67N, N69S, R138Y, E158R, R163T, E223R, E230N
B17: FIXa-K247N/N249S/R318Y/R338E/T343R (protein)
chain 1: B1 chain 1
chain 2: B1 chain 2 with K67N, N69S, R138Y, E223R
B18: FIXa-Y155F/K247N/N249S/R338E/T343R (protein)
chain 1: B1 chain 1
chain 2: B1 chain 2 with K67N, N69S, E223R
B19: FIXa-Y155F/K247N/N249S/R318Y/R403E (protein)
chain 1: B1 chain 1
chain 2: B1 chain 2 with K67N, N69S, R138Y, E158R, R163T
B20: FIXa-Y155F/K247N/N249S/R318Y/R338E/T343R/E410N (protein)
chain 1: B1 chain 1
chain 2: B1 chain 2 with K67N, N69S, R138Y, E223R, E230N
B21: FIXa-Y155F/K247N/N249S/R318Y/R338E/T343R (protein)
chain 1: B1 chain 1
chain 2: B1 chain 2 with K67N, N69S, R138Y, E223R
B22: FIXa-R318Y/R338E/T343R/R403E/E410S (protein)
chain 1: B1 chain 1
chain 2: B1 chain 2 with R138Y, E230S
B23: FIXa-Y155F/R318Y/T343R/R403E (protein)
chain 1: B1 chain 1
chain 2: B1 chain 2 with R138Y, E158R
B24: FIXa-Y155F/N260S/R338E/T343R/R403E (protein)
chain 1: B1 chain 1
chain 2: B1 chain 2 with N80S
B25: FIXa-Y155F/T343R/R403E/E410N (protein)
chain 1: B1 chain 1
chain 2: B1 chain 2 with E158R, E230N
B26: FIXa-Y155F/R318Y/R338E/T343R (protein)
chain 1: B1 chain 1
chain 2: B1 chain 2 with R138Y, E223R

Positions count from the first letter of the chain named. Numbers in names are those of the source.

The target of one data set is Factor X, P00742.
Factor X, P00742, sequence (P00742 whole entry, looked up): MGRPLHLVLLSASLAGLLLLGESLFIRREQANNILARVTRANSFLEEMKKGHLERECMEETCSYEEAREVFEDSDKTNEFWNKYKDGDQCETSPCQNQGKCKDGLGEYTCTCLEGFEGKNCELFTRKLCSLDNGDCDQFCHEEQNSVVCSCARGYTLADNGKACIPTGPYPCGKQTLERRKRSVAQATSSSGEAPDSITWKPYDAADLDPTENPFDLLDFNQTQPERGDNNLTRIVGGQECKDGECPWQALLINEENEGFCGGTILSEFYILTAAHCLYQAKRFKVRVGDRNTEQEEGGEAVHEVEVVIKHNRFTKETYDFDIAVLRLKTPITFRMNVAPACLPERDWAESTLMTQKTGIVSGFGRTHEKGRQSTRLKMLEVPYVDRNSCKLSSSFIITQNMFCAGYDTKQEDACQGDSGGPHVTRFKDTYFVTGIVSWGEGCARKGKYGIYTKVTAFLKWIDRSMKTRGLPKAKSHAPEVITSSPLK
As for B1, the “% of WT kcat/KM” value is recorded as 429%, the kcat was 5.2 s⁻¹ and the kcat/KM turned out to be 2e+08 M⁻¹ s⁻¹.

For B2, the “% of WT kcat/KM” value was determined as 886%, the kcat came to 9.2 s⁻¹ and the kcat/KM stood at 4.1e+08 M⁻¹ s⁻¹.

For the protein B3, the “% of WT kcat/KM” value came out at 629%, the kcat came out at 6.8 s⁻¹ and the specificity constant (kcat/KM) stood at 2.9e+08 M⁻¹ s⁻¹.

Take B4: the “% of WT kcat/KM” value is 651%, the kcat came to 5.9 s⁻¹ and the catalytic efficiency (kcat/KM) came out at 3e+08 M⁻¹ s⁻¹.

Consider B5, for which the kcat stood at 10.3 s⁻¹.

On to B6, for which the Michaelis-Menten constant (KM) was determined as 60 nM.

For the protein B7, the KM was found to be 34.4 nM.

On to B8, for which the catalytic constant (kcat) amounted to 5.3 s⁻¹.

For B9, the “% of WT kcat/KM” value came to 184%, the kcat came out at 4.7 s⁻¹ and the kcat/KM was determined as 8.5e+07 M⁻¹ s⁻¹.

In the case of B10, the kcat is 7.5 s⁻¹.

Take B11: the “% of WT kcat/KM” value is 663%, the kcat worked out at 6.9 s⁻¹ and the kcat/KM stood at 3.1e+08 M⁻¹ s⁻¹.

For B12, the kcat came to 10.8 s⁻¹.

As to B13, the “% of WT kcat/KM” value is 630%, the kcat is 10.6 s⁻¹ and the catalytic efficiency (kcat/KM) was 2.9e+08 M⁻¹ s⁻¹.

In the case of B14, the KM came out at 30 nM.

In the case of B15, the “% of WT kcat/KM” value is listed as 805%, the kcat stood at 9.8 s⁻¹ and the kcat/KM was 3.7e+08 M⁻¹ s⁻¹.

Turning to B16, the kcat turned out to be 3.4 s⁻¹.

Turning to B17, the KM is 24.4 nM.

As to B18, the turnover number (kcat) was 10.6 s⁻¹.

Take B19: the catalytic constant (kcat) amounted to 1.7 s⁻¹.

As for B20, the kcat was 7.7 s⁻¹.

With B21, the KM is 27.6 nM.

As for B22, the “% of WT kcat/KM” value was found to be 962%, the kcat was found to be 7.6 s⁻¹ and the kcat/KM is 4.4e+08 M⁻¹ s⁻¹.

As for B23, the KM was determined as 72.7 nM.

Regarding B24, the “% of WT kcat/KM” value stood at 203%, the kcat came out at 6.4 s⁻¹ and the kcat/KM came out at 9.4e+07 M⁻¹ s⁻¹.

B25: the KM stood at 44.6 nM.

In the case of B26, the KM worked out at 24.2 nM.

A further data set deals with Factor X (FX), P00742.
Factor X (FX), P00742, sequence (P00742 whole entry, looked up): as above
On to B1, for which the KM came out at 28.9 nM.

As to B2, the KM turned out to be 28.4 nM.

As to B3, the KM amounted to 23.9 nM.

For B4, the KM was found to be 19.6 nM.

As to B5, the “% of WT kcat/KM” value amounted to 549%; the KM was 42.1 nM; the kcat/KM for FX activation (Xase: FVIIIa, PC/PS vesicles, Ca2+) was 2.5e+08 M⁻¹ s⁻¹.

With B6, the “% of WT kcat/KM” value stood at 285%; the kcat (s^-1) of FX activation by FIXa variant in the Xase complex (FVIIIa, PC/PS vesicles, Ca2+), fluorogenic FXa read-out turned out to be 8 s⁻¹; the kcat/KM for FX activation (Xase: FVIIIa, PC/PS vesicles, Ca2+) stood at 1.3e+08 M⁻¹ s⁻¹.

With B7, the “% of WT kcat/KM” value is recorded as 599%; the kcat (s^-1) of FX activation by FIXa variant in the Xase complex (FVIIIa, PC/PS vesicles, Ca2+), fluorogenic FXa read-out came out at 7.9 s⁻¹; the kcat/KM for FX activation (Xase: FVIIIa, PC/PS vesicles, Ca2+) is 2.8e+08 M⁻¹ s⁻¹.

With B8, the “% of WT kcat/KM” value stood at 299%; the KM was determined as 40.9 nM; the kcat/KM for FX activation (Xase: FVIIIa, PC/PS vesicles, Ca2+) amounted to 1.4e+08 M⁻¹ s⁻¹.

As to B9, the KM amounted to 59.6 nM.

On to B10, for which the “% of WT kcat/KM” value is listed as 632%; the Michaelis constant (KM) is 26.3 nM; the kcat/KM for FX activation (Xase: FVIIIa, PC/PS vesicles, Ca2+) was 2.9e+08 M⁻¹ s⁻¹.

For the protein B11, the KM was 23.5 nM.

In the case of B12, the “% of WT kcat/KM” value is listed as 930%; the KM worked out at 25.1 nM; the kcat/KM for FX activation (Xase: FVIIIa, PC/PS vesicles, Ca2+) came to 4.3e+08 M⁻¹ s⁻¹.

Consider B13, for which the KM was 36.5 nM.

On to B14, for which the “% of WT kcat/KM” value came to 324%; the kcat (s^-1) of FX activation by FIXa variant in the Xase complex (FVIIIa, PC/PS vesicles, Ca2+), fluorogenic FXa read-out came to 4.5 s⁻¹; the kcat/KM for FX activation (Xase: FVIIIa, PC/PS vesicles, Ca2+) came out at 1.5e+08 M⁻¹ s⁻¹; the “proteolytic cleavage and activation of purified factor X” value was “catalyzes the proteolytic cleavage and activation of purified factor X to the same extent in the presence of (1) poly-L-lysine phospholipid/calcium, and (3) factor VIIIa/phospholipid/calcium”.

With B15, the KM worked out at 26.4 nM.

In the case of B16, the “% of WT kcat/KM” value is on record as 155%; the Michaelis-Menten constant (KM) is 48.8 nM; the kcat/KM for FX activation (Xase: FVIIIa, PC/PS vesicles, Ca2+) was determined as 7.2e+07 M⁻¹ s⁻¹.

For the protein B17, the “% of WT kcat/KM” value came to 840%; the kcat (s^-1) of FX activation by FIXa variant in the Xase complex (FVIIIa, PC/PS vesicles, Ca2+), fluorogenic FXa read-out turned out to be 8 s⁻¹; the kcat/KM for FX activation (Xase: FVIIIa, PC/PS vesicles, Ca2+) turned out to be 3.9e+08 M⁻¹ s⁻¹.

With B18, the “% of WT kcat/KM” value came to 1579%; the KM turned out to be 15.3 nM; the kcat/KM for FX activation (Xase: FVIIIa, PC/PS vesicles, Ca2+) turned out to be 7.3e+08 M⁻¹ s⁻¹.

With B19, the “% of WT kcat/KM” value is 34%; the KM worked out at 109 nM; the kcat/KM for FX activation (Xase: FVIIIa, PC/PS vesicles, Ca2+) was 1.6e+07 M⁻¹ s⁻¹.

For B20, the “% of WT kcat/KM” value is on record as 1091%; the KM was found to be 17.7 nM; the kcat/KM for FX activation (Xase: FVIIIa, PC/PS vesicles, Ca2+) came to 5e+08 M⁻¹ s⁻¹.

For B21, the “% of WT kcat/KM” value was determined as 772%; the kcat (s^-1) of FX activation by FIXa variant in the Xase complex (FVIIIa, PC/PS vesicles, Ca2+), fluorogenic FXa read-out was determined as 8.5 s⁻¹; the kcat/KM for FX activation (Xase: FVIIIa, PC/PS vesicles, Ca2+) amounted to 3.6e+08 M⁻¹ s⁻¹.

Turning to B22, the KM stood at 19 nM.

As to B23, the “% of WT kcat/KM” value was 154%; the kcat (s^-1) of FX activation by FIXa variant in the Xase complex (FVIIIa, PC/PS vesicles, Ca2+), fluorogenic FXa read-out stood at 5 s⁻¹; the kcat/KM for FX activation (Xase: FVIIIa, PC/PS vesicles, Ca2+) is 7.1e+07 M⁻¹ s⁻¹.

For the protein B24, the KM turned out to be 69.2 nM.

With B25, the “% of WT kcat/KM” value was determined as 321%; the kcat (s^-1) of FX activation by FIXa variant in the Xase complex (FVIIIa, PC/PS vesicles, Ca2+), fluorogenic FXa read-out was 6.6 s⁻¹; the kcat/KM for FX activation (Xase: FVIIIa, PC/PS vesicles, Ca2+) worked out at 1.5e+08 M⁻¹ s⁻¹.

For the protein B26, the “% of WT kcat/KM” value is listed as 771%; the kcat (s^-1) of FX activation by FIXa variant in the Xase complex (FVIIIa, PC/PS vesicles, Ca2+), fluorogenic FXa read-out worked out at 7.9 s⁻¹; the kcat/KM for FX activation (Xase: FVIIIa, PC/PS vesicles, Ca2+) came to 3.6e+08 M⁻¹ s⁻¹.
